Results reported in US20180155451A1 (published 2018).

T1: FcγRIIa R (FcγRIIa, allotype R, Arg at position 131), extracellular domain with C-terminal His tag (human, UniProt P12318 34-217)
T1 construct: extracellular domain; soluble receptor used as Biacore analyte; also called 2aR; FcgRIIa R
T1 sequence (looked up): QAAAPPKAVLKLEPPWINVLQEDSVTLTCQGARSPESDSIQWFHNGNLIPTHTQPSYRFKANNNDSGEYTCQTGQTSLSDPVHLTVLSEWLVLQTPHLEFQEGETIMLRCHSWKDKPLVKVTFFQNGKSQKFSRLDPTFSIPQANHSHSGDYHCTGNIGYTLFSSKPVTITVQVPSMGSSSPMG

T2: FcγRIIb, extracellular domain with C-terminal His tag (human, UniProt P31994 43-217)
T2 construct: extracellular domain; soluble receptor used as Biacore analyte; also called 2b; FcgRIIb
T2 sequence (looked up): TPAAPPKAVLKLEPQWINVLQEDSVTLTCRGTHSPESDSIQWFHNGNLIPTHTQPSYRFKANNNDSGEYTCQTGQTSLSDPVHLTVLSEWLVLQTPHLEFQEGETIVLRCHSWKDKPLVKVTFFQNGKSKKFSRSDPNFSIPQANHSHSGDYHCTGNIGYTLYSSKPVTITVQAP


Key:
[1] = target: T1, FcγRIIa R (FcγRIIa, allotype R, Arg at …); assay: Biacore SPR; He/Con_2aR divided by He/Con_2b (FcγRIIb)
Experimental: (§1) The heterodimerized antibodies He Abs in which one of the H chains was introduced with an alteration were assayed for their binding activities to each activating FcγR and inhibitory FcγR according to the method described in Example 4. […] The activating FcγRs in FIGS. 26, 27, 28, and 29 are FcγRIa, FcγRIIa (R), FcγRIIa (H), and FcγRIIIa, respectively.
(§2) Analysis of interaction between objective antibody and the FcγR was carried out using Biacore T100 (GE Healthcare). HBS-EP+ (GE Healthcare) was used as the running buffer, and the measurement temperature was set to 25° C. Chips produced by immobilizing the antigen peptide by the amine coupling method to a Series S Sencor Chip CM5 (GE Healthcare), or alternatively, chips produced by allowing preliminarily biotinylated antigen peptides to interact with and immobilize onto a Series S Sensor Chip SA (certified) (GE Healthcare) were used. Antibodies of interest were captured onto an antigen peptide-immobilized chip, and allowed to interact to each FcγR diluted with running buffer. To regenerate and repeatedly use the chip, the antibodies captured on the chip were washed off by reacting 10 mM glycine-HCl, pH 1.5.

[2] = target: T1, FcγRIIa R (FcγRIIa, allotype R, Arg at …); assay: Biacore SPR; binding relative to GpH7-A5/GpH7-B3/GpL16-k0 (=100)
Experimental: as §1, §2

[3] = target: T2, FcγRIIb, extracellular domain with …; assay: as above
Experimental: as §1, §2

| Binder | IIaR/IIb (He_2aR/2b) [1] | He/Con_2aR (IIaR binding) [2] | He/Con_2b (IIb binding) [3] |
| --- | --- | --- | --- |
| heterodimerized antibody GpH7-A5/GpH7-B3 variant S239_10E/GpL16-k0 (antibody, human IgG1, kappa, He Ab: anti-glypican-3 IgG1, alteration in one H chain only; also called He Ab) heavy 1: not shown heavy 2: not shown light: DIVMTQSPLSLPVTPGEPASISCQASESLVHSNRNTYLHWYLQKPGQSPQLLIYKVSNRFSGVPDRFSGSGSGTDFTLKISRVEAEDVGVYYCSQNTHVPPTFGQGTKVEIERTVAAPSVFIFPPSDEQLKSGTASVVCLLNNFYPREAKVQWKVDNALQSGNSQESVTEQDSKDSTYSLSSTLTLSKADYEKHKVYACEVTHQGLSSPVTKSFNRGEC | 0.75 | 135 % of control | 181 % of control |
| heterodimerized antibody GpH7-A5/GpH7-B3 variant Y300_10E/GpL16-k0 (antibody, human IgG1, kappa, He Ab: anti-glypican-3 IgG1, alteration in one H chain only; also called He Ab) heavy 1: not shown heavy 2: not shown light: DIVMTQSPLSLPVTPGEPASISCQASESLVHSNRNTYLHWYLQKPGQSPQLLIYKVSNRFSGVPDRFSGSGSGTDFTLKISRVEAEDVGVYYCSQNTHVPPTFGQGTKVEIERTVAAPSVFIFPPSDEQLKSGTASVVCLLNNFYPREAKVQWKVDNALQSGNSQESVTEQDSKDSTYSLSSTLTLSKADYEKHKVYACEVTHQGLSSPVTKSFNRGEC | 0.8 | 107 % of control | 134 % of control |
| heterodimerized antibody GpH7-A5/GpH7-B3 variant S267_19Q/GpL16-k0 (antibody, human IgG1, kappa, He Ab: anti-glypican-3 IgG1, alteration in one H chain only; also called He Ab) heavy 1: not shown heavy 2: not shown light: DIVMTQSPLSLPVTPGEPASISCQASESLVHSNRNTYLHWYLQKPGQSPQLLIYKVSNRFSGVPDRFSGSGSGTDFTLKISRVEAEDVGVYYCSQNTHVPPTFGQGTKVEIERTVAAPSVFIFPPSDEQLKSGTASVVCLLNNFYPREAKVQWKVDNALQSGNSQESVTEQDSKDSTYSLSSTLTLSKADYEKHKVYACEVTHQGLSSPVTKSFNRGEC | 0.62 | 135 % of control | 218 % of control |
| heterodimerized antibody GpH7-A5/GpH7-B3 variant V266_06M/GpL16-k0 (antibody, human IgG1, kappa, He Ab: anti-glypican-3 IgG1, alteration in one H chain only; also called He Ab) heavy 1: not shown heavy 2: not shown light: DIVMTQSPLSLPVTPGEPASISCQASESLVHSNRNTYLHWYLQKPGQSPQLLIYKVSNRFSGVPDRFSGSGSGTDFTLKISRVEAEDVGVYYCSQNTHVPPTFGQGTKVEIERTVAAPSVFIFPPSDEQLKSGTASVVCLLNNFYPREAKVQWKVDNALQSGNSQESVTEQDSKDSTYSLSSTLTLSKADYEKHKVYACEVTHQGLSSPVTKSFNRGEC | 0.6 | 150 % of control | 251 % of control |
| heterodimerized antibody GpH7-A5/GpH7-B3 variant S267_02A/GpL16-k0 (antibody, human IgG1, kappa, He Ab: anti-glypican-3 IgG1, alteration in one H chain only; also called He Ab) heavy 1: not shown heavy 2: not shown light: DIVMTQSPLSLPVTPGEPASISCQASESLVHSNRNTYLHWYLQKPGQSPQLLIYKVSNRFSGVPDRFSGSGSGTDFTLKISRVEAEDVGVYYCSQNTHVPPTFGQGTKVEIERTVAAPSVFIFPPSDEQLKSGTASVVCLLNNFYPREAKVQWKVDNALQSGNSQESVTEQDSKDSTYSLSSTLTLSKADYEKHKVYACEVTHQGLSSPVTKSFNRGEC | 0.64 | 155 % of control | 243 % of control |
| heterodimerized antibody GpH7-A5/GpH7-B3 variant V266_07I/GpL16-k0 (antibody, human IgG1, kappa, He Ab: anti-glypican-3 IgG1, alteration in one H chain only; also called He Ab) heavy 1: not shown heavy 2: not shown light: DIVMTQSPLSLPVTPGEPASISCQASESLVHSNRNTYLHWYLQKPGQSPQLLIYKVSNRFSGVPDRFSGSGSGTDFTLKISRVEAEDVGVYYCSQNTHVPPTFGQGTKVEIERTVAAPSVFIFPPSDEQLKSGTASVVCLLNNFYPREAKVQWKVDNALQSGNSQESVTEQDSKDSTYSLSSTLTLSKADYEKHKVYACEVTHQGLSSPVTKSFNRGEC | 0.79 | 120 % of control | 152 % of control |
| heterodimerized antibody GpH7-A5/GpH7-B3 variant S267_04F/GpL16-k0 (antibody, human IgG1, kappa, He Ab: anti-glypican-3 IgG1, alteration in one H chain only; also called He Ab) heavy 1: not shown heavy 2: not shown light: DIVMTQSPLSLPVTPGEPASISCQASESLVHSNRNTYLHWYLQKPGQSPQLLIYKVSNRFSGVPDRFSGSGSGTDFTLKISRVEAEDVGVYYCSQNTHVPPTFGQGTKVEIERTVAAPSVFIFPPSDEQLKSGTASVVCLLNNFYPREAKVQWKVDNALQSGNSQESVTEQDSKDSTYSLSSTLTLSKADYEKHKVYACEVTHQGLSSPVTKSFNRGEC | 0.79 | 37.8 % of control | 48 % of control |
| heterodimerized antibody GpH7-A5/GpH7-B3 variant V266_08L/GpL16-k0 (antibody, human IgG1, kappa, He Ab: anti-glypican-3 IgG1, alteration in one H chain only; also called He Ab) heavy 1: not shown heavy 2: not shown light: DIVMTQSPLSLPVTPGEPASISCQASESLVHSNRNTYLHWYLQKPGQSPQLLIYKVSNRFSGVPDRFSGSGSGTDFTLKISRVEAEDVGVYYCSQNTHVPPTFGQGTKVEIERTVAAPSVFIFPPSDEQLKSGTASVVCLLNNFYPREAKVQWKVDNALQSGNSQESVTEQDSKDSTYSLSSTLTLSKADYEKHKVYACEVTHQGLSSPVTKSFNRGEC | 0.6 | 142 % of control | 236 % of control |
| heterodimerized antibody GpH7-A5/GpH7-B3 variant S267_06M/GpL16-k0 (antibody, human IgG1, kappa, He Ab: anti-glypican-3 IgG1, alteration in one H chain only; also called He Ab) heavy 1: not shown heavy 2: not shown light: DIVMTQSPLSLPVTPGEPASISCQASESLVHSNRNTYLHWYLQKPGQSPQLLIYKVSNRFSGVPDRFSGSGSGTDFTLKISRVEAEDVGVYYCSQNTHVPPTFGQGTKVEIERTVAAPSVFIFPPSDEQLKSGTASVVCLLNNFYPREAKVQWKVDNALQSGNSQESVTEQDSKDSTYSLSSTLTLSKADYEKHKVYACEVTHQGLSSPVTKSFNRGEC | 0.58 | 122 % of control | 210 % of control |
| heterodimerized antibody GpH7-A5/GpH7-B3 variant S267_07I/GpL16-k0 (antibody, human IgG1, kappa, He Ab: anti-glypican-3 IgG1, alteration in one H chain only; also called He Ab) heavy 1: not shown heavy 2: not shown light: DIVMTQSPLSLPVTPGEPASISCQASESLVHSNRNTYLHWYLQKPGQSPQLLIYKVSNRFSGVPDRFSGSGSGTDFTLKISRVEAEDVGVYYCSQNTHVPPTFGQGTKVEIERTVAAPSVFIFPPSDEQLKSGTASVVCLLNNFYPREAKVQWKVDNALQSGNSQESVTEQDSKDSTYSLSSTLTLSKADYEKHKVYACEVTHQGLSSPVTKSFNRGEC | 0.58 | 111 % of control | 192 % of control |
| heterodimerized antibody GpH7-A5/GpH7-B3 variant V266_04F/GpL16-k0 (antibody, human IgG1, kappa, He Ab: anti-glypican-3 IgG1, alteration in one H chain only; also called He Ab) heavy 1: not shown heavy 2: not shown light: DIVMTQSPLSLPVTPGEPASISCQASESLVHSNRNTYLHWYLQKPGQSPQLLIYKVSNRFSGVPDRFSGSGSGTDFTLKISRVEAEDVGVYYCSQNTHVPPTFGQGTKVEIERTVAAPSVFIFPPSDEQLKSGTASVVCLLNNFYPREAKVQWKVDNALQSGNSQESVTEQDSKDSTYSLSSTLTLSKADYEKHKVYACEVTHQGLSSPVTKSFNRGEC | 0.77 | 44.4 % of control | 57.6 % of control |
| heterodimerized antibody GpH7-A5/GpH7-B3 variant S267_16H/GpL16-k0 (antibody, human IgG1, kappa, He Ab: anti-glypican-3 IgG1, alteration in one H chain only; also called He Ab) heavy 1: not shown heavy 2: not shown light: DIVMTQSPLSLPVTPGEPASISCQASESLVHSNRNTYLHWYLQKPGQSPQLLIYKVSNRFSGVPDRFSGSGSGTDFTLKISRVEAEDVGVYYCSQNTHVPPTFGQGTKVEIERTVAAPSVFIFPPSDEQLKSGTASVVCLLNNFYPREAKVQWKVDNALQSGNSQESVTEQDSKDSTYSLSSTLTLSKADYEKHKVYACEVTHQGLSSPVTKSFNRGEC | 0.77 | 50.6 % of control | 65.9 % of control |
| heterodimerized antibody GpH7-A5/GpH7-B3 variant S267_09D/GpL16-k0 (antibody, human IgG1, kappa, He Ab: anti-glypican-3 IgG1, alteration in one H chain only; also called He Ab) heavy 1: not shown heavy 2: not shown light: DIVMTQSPLSLPVTPGEPASISCQASESLVHSNRNTYLHWYLQKPGQSPQLLIYKVSNRFSGVPDRFSGSGSGTDFTLKISRVEAEDVGVYYCSQNTHVPPTFGQGTKVEIERTVAAPSVFIFPPSDEQLKSGTASVVCLLNNFYPREAKVQWKVDNALQSGNSQESVTEQDSKDSTYSLSSTLTLSKADYEKHKVYACEVTHQGLSSPVTKSFNRGEC | 0.56 | 173 % of control | 310 % of control |
| heterodimerized antibody GpH7-A5/GpH7-B3 variant S267_14T/GpL16-k0 (antibody, human IgG1, kappa, He Ab: anti-glypican-3 IgG1, alteration in one H chain only; also called He Ab) heavy 1: not shown heavy 2: not shown light: DIVMTQSPLSLPVTPGEPASISCQASESLVHSNRNTYLHWYLQKPGQSPQLLIYKVSNRFSGVPDRFSGSGSGTDFTLKISRVEAEDVGVYYCSQNTHVPPTFGQGTKVEIERTVAAPSVFIFPPSDEQLKSGTASVVCLLNNFYPREAKVQWKVDNALQSGNSQESVTEQDSKDSTYSLSSTLTLSKADYEKHKVYACEVTHQGLSSPVTKSFNRGEC | 0.78 | 81.9 % of control | 104 % of control |
| heterodimerized antibody GpH7-A5/GpH7-B3 variant S267_10E/GpL16-k0 (antibody, human IgG1, kappa, He Ab: anti-glypican-3 IgG1, alteration in one H chain only; also called He Ab) heavy 1: not shown heavy 2: not shown light: DIVMTQSPLSLPVTPGEPASISCQASESLVHSNRNTYLHWYLQKPGQSPQLLIYKVSNRFSGVPDRFSGSGSGTDFTLKISRVEAEDVGVYYCSQNTHVPPTFGQGTKVEIERTVAAPSVFIFPPSDEQLKSGTASVVCLLNNFYPREAKVQWKVDNALQSGNSQESVTEQDSKDSTYSLSSTLTLSKADYEKHKVYACEVTHQGLSSPVTKSFNRGEC | 0.46 | 175 % of control | 379 % of control |
| heterodimerized antibody GpH7-A5/GpH7-B3 variant S267_03V/GpL16-k0 (antibody, human IgG1, kappa, He Ab: anti-glypican-3 IgG1, alteration in one H chain only; also called He Ab) heavy 1: not shown heavy 2: not shown light: DIVMTQSPLSLPVTPGEPASISCQASESLVHSNRNTYLHWYLQKPGQSPQLLIYKVSNRFSGVPDRFSGSGSGTDFTLKISRVEAEDVGVYYCSQNTHVPPTFGQGTKVEIERTVAAPSVFIFPPSDEQLKSGTASVVCLLNNFYPREAKVQWKVDNALQSGNSQESVTEQDSKDSTYSLSSTLTLSKADYEKHKVYACEVTHQGLSSPVTKSFNRGEC | 0.61 | 116 % of control | 192 % of control |
